# Experimental data as given in patent US20200308270A1.
# Assays:
# [1] = molecular target: human recombinant FcgammaR receptor CD32bF (human) (UniProt P31994); assay: SPR (ProteOn), Mab captured via anti-human Fc, FcgammaR analyte
# [2] = molecular target: human recombinant FcgammaR receptor CD32aH (human) (UniProt P12318); assay: as above
# human recombinant FcgammaR receptor CD32aH (human), sequence (P12318 34-217): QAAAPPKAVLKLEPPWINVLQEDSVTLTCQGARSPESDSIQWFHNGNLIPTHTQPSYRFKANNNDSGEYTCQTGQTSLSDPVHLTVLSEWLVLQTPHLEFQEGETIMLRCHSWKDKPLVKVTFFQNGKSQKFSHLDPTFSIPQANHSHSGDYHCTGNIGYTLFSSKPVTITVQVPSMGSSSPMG
# CAT-2200 wild-type lambda Mab (antibody), sequence (heavy): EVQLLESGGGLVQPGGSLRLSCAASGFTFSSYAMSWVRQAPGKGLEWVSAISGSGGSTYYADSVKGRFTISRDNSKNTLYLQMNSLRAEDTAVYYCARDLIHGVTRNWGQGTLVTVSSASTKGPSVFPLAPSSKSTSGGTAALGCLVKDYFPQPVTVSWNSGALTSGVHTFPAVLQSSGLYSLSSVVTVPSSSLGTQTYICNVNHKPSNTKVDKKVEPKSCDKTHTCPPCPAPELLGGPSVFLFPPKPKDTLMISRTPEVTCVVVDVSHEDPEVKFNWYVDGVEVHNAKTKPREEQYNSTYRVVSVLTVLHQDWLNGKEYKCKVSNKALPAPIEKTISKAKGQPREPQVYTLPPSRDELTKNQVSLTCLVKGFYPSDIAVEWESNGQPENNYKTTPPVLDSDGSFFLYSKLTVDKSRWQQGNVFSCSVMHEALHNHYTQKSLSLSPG
# CAT-2200 wild-type lambda Mab (antibody), sequence (light): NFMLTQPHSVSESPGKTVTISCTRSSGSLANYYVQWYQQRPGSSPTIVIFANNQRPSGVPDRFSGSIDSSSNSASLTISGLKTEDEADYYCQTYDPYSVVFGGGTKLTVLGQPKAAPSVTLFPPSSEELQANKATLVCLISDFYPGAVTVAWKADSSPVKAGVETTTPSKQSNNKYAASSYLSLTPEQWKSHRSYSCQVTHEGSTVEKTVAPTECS
substance,measurement,setting,value
CAT-2200 wild-type lambda Mab (antibody),Kd,[1],2900 nM
same,Kd,[2],700 nM
